Here are results for one molecule from patent publication US20030157685A1 (GENERAL HOSPITAL CORPORATION A MASSACHUSETTS, published 2003).

Assay [1] deals with T1, LexA-C-myc bait (carboxy-terminal 176 amino acids of human C-myc) (human, UniProt P0A7C2 1-202; P01106 279-454).
T1 construct: also called Lex-C-myc
Put plainly: yeast two-hybrid.

Assay [2] concerns the target T2, LexA-N-myc bait (carboxyl-terminal 224 amino acids of human N-myc) (human, UniProt P0A7C2 1-202; P04198 241-464).
T2 construct: also called PL-LexA-N-myc
T2 sequence (looked up): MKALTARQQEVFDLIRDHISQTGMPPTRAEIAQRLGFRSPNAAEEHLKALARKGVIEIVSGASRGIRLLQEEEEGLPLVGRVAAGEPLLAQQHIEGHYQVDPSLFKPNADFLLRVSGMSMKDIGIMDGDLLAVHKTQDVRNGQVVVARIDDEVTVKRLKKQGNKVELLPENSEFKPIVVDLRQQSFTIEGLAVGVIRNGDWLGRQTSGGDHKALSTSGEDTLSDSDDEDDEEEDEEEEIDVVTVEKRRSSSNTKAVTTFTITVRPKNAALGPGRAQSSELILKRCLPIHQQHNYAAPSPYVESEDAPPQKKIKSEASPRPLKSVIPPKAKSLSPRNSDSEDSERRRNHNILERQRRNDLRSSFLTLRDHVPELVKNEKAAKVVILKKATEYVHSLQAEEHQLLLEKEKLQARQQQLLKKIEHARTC
Kind of assay: yeast two-hybrid.

B1: full length Nmi fused in-frame with the transcriptional activator B42 in JG4-5 vector (other, not shown: small tags and cut ends)
chain: MEADKDDTQQILKEHSPDEFIKDEQNKGLIDEITKKNIQLKKEIQKLETELQEATKEFQIKEDIPETKMKFLSVETPENDSQLSNISCSFQVSSKVPYEIQKGQALITFEKEEVAQNVVSMSKHHVQIKDVNLEVTAKPVPLNSGVRFQVYVEVSKMKINVTEIPDTLREDQMRDKLELSFSKFRNGGGEVDRVDYDRQSGSAVITFVEIGVADKILKKKEYPLYINQTCHRVTVSPYTEIHLKKYQIFSGTSKRTVLLTGMEGIQMDEEIVEDLINIHFQRAKNGGGEVDVVKCSLGQPHIAYFEE
notes: Yeast two-hybrid prey; the 307 amino acid protein is meant
On to B1, for which the binding result in assay [1] and in assay [2] was “binds” throughout.
